Test results published in patent US20220017583A1.

Biological target: amyloid β (1-28) (UniProt P05067)
Experiment: trapping on beads in buffer, eluate by MALDI-TOF MS; ratio of detection limits

Sequence of UniProt P05067 (P05067 672-699 limits assumed): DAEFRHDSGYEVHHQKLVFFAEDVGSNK

fold sensitivity against the IgG-protein G beads of each kind: 5 times
Substance: 6E10 F(ab′)-PEG24 beads (Fab)
